Consider 30 sequences from publication PMC6602471.

This series concerns the target T1, ETS1 (Homo sapiens) (UniProt P14921).
T1 sequence (P14921 whole entry, looked up): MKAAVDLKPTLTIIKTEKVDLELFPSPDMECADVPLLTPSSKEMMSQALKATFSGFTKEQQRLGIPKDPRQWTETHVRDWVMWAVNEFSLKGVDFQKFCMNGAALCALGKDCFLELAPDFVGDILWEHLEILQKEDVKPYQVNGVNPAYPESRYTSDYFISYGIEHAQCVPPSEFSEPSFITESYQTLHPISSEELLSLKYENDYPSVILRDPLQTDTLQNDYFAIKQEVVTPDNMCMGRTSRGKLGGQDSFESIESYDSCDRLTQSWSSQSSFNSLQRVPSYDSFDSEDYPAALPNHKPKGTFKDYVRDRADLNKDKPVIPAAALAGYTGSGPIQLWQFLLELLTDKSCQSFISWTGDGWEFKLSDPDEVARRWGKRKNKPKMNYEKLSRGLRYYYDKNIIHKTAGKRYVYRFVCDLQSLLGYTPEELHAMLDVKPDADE
Briefly: PBM. To be noted: Custom protein-binding microarray; buffer, salt, pH and temperature not given in the material.
“CGGAAGTGTCGTAAACGTCGGAAATCCGGTTCTTCTGTCTTGATTCGCTTGACGCTGCTG (double strand) [seq01_p23 T>A]”: the binding signal came to 9.71 log signal.
As for “CGGAAGTGTCGTAAACGTCGGACATCCGGTTCTTCTGTCTTGATTCGCTTGACGCTGCTG (double strand) [seq01_p23 T>C]”, the figure is 12.6 log signal.
For “CGGAAGTGTCGTAAACGTCGGAGATCCGGTTCTTCTGTCTTGATTCGCTTGACGCTGCTG (double strand) [seq01_p23 T>G]”, the binding signal is 8.83 log signal.
Turning to “CGGAAGTGTCGTAAACGTCGGATAACCGGTTCTTCTGTCTTGATTCGCTTGACGCTGCTG (double strand) [seq01_p25 T>A]”, the binding signal is 8.34 log signal.
Consider “CGGAAGTGTCGTAAACGTCGGATACCCGGTTCTTCTGTCTTGATTCGCTTGACGCTGCTG (double strand) [seq01_p25 T>C]”, for which the binding signal is 8.31 log signal.
As for “CGGAAGTGTCGTAAACGTCGGATAGCCGGTTCTTCTGTCTTGATTCGCTTGACGCTGCTG (double strand) [seq01_p25 T>G]”, the figure is 8.18 log signal.
In the case of “CGGAAGTGTCGTAAACGTCGGATATACGGTTCTTCTGTCTTGATTCGCTTGACGCTGCTG (double strand) [seq01_p26 C>A]” it was 9.21 log signal; in that of “CGGAAGTGTCGTAAACGTCGGATATCAGGTTCTTCTGTCTTGATTCGCTTGACGCTGCTG (double strand) [seq01_p27 C>A]”, 8.51 log signal; in that of “CGGAAGTGTCGTAAACGTCGGATATCCAGTTCTTCTGTCTTGATTCGCTTGACGCTGCTG (double strand) [seq01_p28 G>A]”, 8.64 log signal.
As to “CGGAAGTGTCGTAAACGTCGGATATCCCGTTCTTCTGTCTTGATTCGCTTGACGCTGCTG (double strand) [seq01_p28 G>C]”, the binding signal is 8.7 log signal.
For “CGGAAGTGTCGTAAACGTCGGATATCCGATTCTTCTGTCTTGATTCGCTTGACGCTGCTG (double strand) [seq01_p29 G>A]”, the binding signal was 8.64 log signal.
For “CGGAAGTGTCGTAAACGTCGGATATCCGCTTCTTCTGTCTTGATTCGCTTGACGCTGCTG (double strand) [seq01_p29 G>C]”, the binding signal amounted to 10.1 log signal.
Regarding “CGGAAGTGTCGTAAACGTCGGATATCCGGATCTTCTGTCTTGATTCGCTTGACGCTGCTG (double strand) [seq01_p30 T>A]”, the binding signal is 9.94 log signal.
As to “CGGAAGTGTCGTAAACGTCGGATATCCGGCTCTTCTGTCTTGATTCGCTTGACGCTGCTG (double strand) [seq01_p30 T>C]”, the binding signal came out at 10.7 log signal.
“CGGAAGTGTCGTAAACGTCGGATATCCGGGTCTTCTGTCTTGATTCGCTTGACGCTGCTG (double strand) [seq01_p30 T>G]”: the binding signal was 10.2 log signal.
In the case of “CGGAAGTGTCGTAAACGTCGGATATCCGGTTCTTCTGTCTTGATTCGCTTGACGCTGCTG (double strand) [seq01_wt0]”, the binding signal came to 11.9 log signal.
“CGGAAGTGTCGTAAACGTCGGATATCCGTTTCTTCTGTCTTGATTCGCTTGACGCTGCTG (double strand) [seq01_p29 G>T]”: the binding signal was determined as 9.45 log signal.
As for “CGGAAGTGTCGTAAACGTCGGATATCCTGTTCTTCTGTCTTGATTCGCTTGACGCTGCTG (double strand) [seq01_p28 G>T]”, the binding signal was found to be 10.1 log signal.
For “CGGAAGTGTCGTAAACGTCGGATATCGGGTTCTTCTGTCTTGATTCGCTTGACGCTGCTG (double strand) [seq01_p27 C>G]”, the binding signal was 8.65 log signal.
Take “CGGAAGTGTCGTAAACGTCGGATATCTGGTTCTTCTGTCTTGATTCGCTTGACGCTGCTG (double strand) [seq01_p27 C>T]”: the binding signal came to 8.37 log signal.
As for “CGGAAGTGTCGTAAACGTCGGATATGCGGTTCTTCTGTCTTGATTCGCTTGACGCTGCTG (double strand) [seq01_p26 C>G]”, the binding signal stood at 8.38 log signal.
Take “CGGAAGTGTCGTAAACGTCGGATATTCGGTTCTTCTGTCTTGATTCGCTTGACGCTGCTG (double strand) [seq01_p26 C>T]”: the binding signal was 8.55 log signal.
For the sequence “CGGAAGTGTCGTAAACGTCGGATCTCCGGTTCTTCTGTCTTGATTCGCTTGACGCTGCTG (double strand) [seq01_p24 A>C]”, the binding signal was determined as 8.47 log signal.
On to “CGGAAGTGTCGTAAACGTCGGATGTCCGGTTCTTCTGTCTTGATTCGCTTGACGCTGCTG (double strand) [seq01_p24 A>G]”, for which the binding signal stood at 9.65 log signal.
As for “CGGAAGTGTCGTAAACGTCGGATTTCCGGTTCTTCTGTCTTGATTCGCTTGACGCTGCTG (double strand) [seq01_p24 A>T]”, the binding signal worked out at 12.5 log signal.
With “CGGAAGTGTCGTAAACGTCGGCTATCCGGTTCTTCTGTCTTGATTCGCTTGACGCTGCTG (double strand) [seq01_p22 A>C]”, the binding signal amounted to 8.79 log signal.
Take “CGGAAGTGTCGTAAACGTCGGGTATCCGGTTCTTCTGTCTTGATTCGCTTGACGCTGCTG (double strand) [seq01_p22 A>G]”: the binding signal is 10.5 log signal.
As for “CGGAAGTGTCGTAAACGTCGGTTATCCGGTTCTTCTGTCTTGATTCGCTTGACGCTGCTG (double strand) [seq01_p22 A>T]”, the binding signal worked out at 9.21 log signal.
In the case of “GCTGCTGCGGTGCATACCCCACCGGATGTGACCCCGGTCTTGATTCGCTTGACGCTGCTG (double strand) [seq02_wt0]”, the binding signal was 10.2 log signal.
On to “GGAAAAAGGCCCAGGGTAACACCGGAAGTGGGCTTAGTCTTGATTCGCTTGACGCTGCTG (double strand) [seq04_wt0]”, for which the binding signal is 12 log signal.
